Assay [1] addresses T1, human PD-1 on cells (HEK-PD-1 reporter cells; activated PBMC) (human, UniProt Q15116 25-288). In words: cell-based or functional assay.
Assay [2] has as its target T2, human PD-1 (human, UniProt Q15116 25-167, limits assumed).
T2 construct: also called hPD-1
In words: same value as Table 11 (measured on the antibody without IL-12).

In assay [3] the target is human IL-12 receptor complex (IL-12Rβ1 and IL-12Rβ2) (human, UniProt P42701 24-662; Q99665 24-862). In words: cell-based or functional assay.
human IL-12 receptor complex (IL-12Rβ1 and IL-12Rβ2), sequence (Q99665 24-862, chain 2 of 2, other chains not shown): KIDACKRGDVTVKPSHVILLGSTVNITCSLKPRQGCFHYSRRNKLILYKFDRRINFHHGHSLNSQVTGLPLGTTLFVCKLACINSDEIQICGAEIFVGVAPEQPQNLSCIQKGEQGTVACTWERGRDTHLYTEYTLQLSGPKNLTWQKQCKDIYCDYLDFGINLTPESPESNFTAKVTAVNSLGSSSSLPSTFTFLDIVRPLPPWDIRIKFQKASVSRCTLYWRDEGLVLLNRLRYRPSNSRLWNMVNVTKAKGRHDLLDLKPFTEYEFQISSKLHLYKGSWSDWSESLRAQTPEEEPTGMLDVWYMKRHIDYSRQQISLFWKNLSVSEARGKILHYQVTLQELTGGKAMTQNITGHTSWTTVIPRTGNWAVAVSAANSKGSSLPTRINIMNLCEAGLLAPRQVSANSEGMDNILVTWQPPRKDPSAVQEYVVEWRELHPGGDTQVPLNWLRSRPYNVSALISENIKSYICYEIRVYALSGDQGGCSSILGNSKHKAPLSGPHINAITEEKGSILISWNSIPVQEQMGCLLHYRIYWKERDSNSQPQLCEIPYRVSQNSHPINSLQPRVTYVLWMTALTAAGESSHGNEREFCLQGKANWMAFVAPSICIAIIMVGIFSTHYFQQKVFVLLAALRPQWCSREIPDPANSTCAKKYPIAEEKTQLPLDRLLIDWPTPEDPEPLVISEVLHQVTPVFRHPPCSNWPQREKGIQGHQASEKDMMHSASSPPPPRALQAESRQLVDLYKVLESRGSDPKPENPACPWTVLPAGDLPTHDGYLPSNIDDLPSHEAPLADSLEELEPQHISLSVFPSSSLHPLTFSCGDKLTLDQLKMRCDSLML
The target in assay [4] is T1, human PD-1 on cells (HEK-PD-1 reporter …). In words: cell-based or functional assay. This is another data set of the same source.
Assay [5] concerns the target T2, human PD-1. As to the kind of experiment: Biacore and cell-based assays, calibrated by wildtype nivolumab binding affinity. (In general: SPR reads the build-up and loss of mass on a sensor chip optically.)

We go through 7 molecules from US20240392004A1 (IMMUNOWAKE, published 2024).

T1 sequence (Q15116 25-288): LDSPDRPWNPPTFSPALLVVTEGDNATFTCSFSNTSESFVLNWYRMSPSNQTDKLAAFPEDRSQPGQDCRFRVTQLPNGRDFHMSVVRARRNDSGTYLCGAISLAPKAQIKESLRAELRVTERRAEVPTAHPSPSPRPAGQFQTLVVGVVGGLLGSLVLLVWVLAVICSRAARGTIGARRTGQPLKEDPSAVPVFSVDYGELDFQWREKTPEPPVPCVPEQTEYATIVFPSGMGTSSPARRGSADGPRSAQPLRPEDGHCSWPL
T2 sequence (Q15116 25-167 limits assumed): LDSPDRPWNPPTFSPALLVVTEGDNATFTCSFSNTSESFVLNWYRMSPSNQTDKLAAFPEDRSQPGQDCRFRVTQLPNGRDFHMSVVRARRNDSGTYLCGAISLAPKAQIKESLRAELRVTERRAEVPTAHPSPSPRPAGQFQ

B1: IL-12(E59A/F60A)/PD-L1(I54Q/Y56F/E58M/R113T/M115L/S117A/G119K)-Fc (IL-12 at hinge) (Fc fusion)
chain 1: FTVTVPKDLYVVEYGSNMTIECKFPVEKQLDLAALQVFWMMEDKNIIQFVHGEEDLKVQHSSYRQRARLLKDQLSLGNAALQITDVKLQDAGVYTCLIAYKGADYKRITVKVNAPYNKINQRILVVDPVTSEHELTCQAEGYPKAEVIWTSSDHQVLSGKTTTTNSKREEKLFNVTSTLRINTTTNEIFYCTFRRLDPEENHTAELVIPELPLAHPPNERGSGDKTHTCPPCPAPEKKGGPSVFLFPPKPKDTLMISRTPEVTCVVVDVSHEDPEVKFNWYVDGVEVHNAKTKPREEQYNSTYRVVSVLTVLHQDWLNGKEYKCKVSNKALPAPIEKTISKAKGQPREPQVYVLPPSREEMTKNQVSLLCLVKGFYPSDIAVEWESNGQPENRYMTWPPVLDSDGSFFLYSKLTVDKSRWQQGNVFSCSVMHEALHNHYTQKSLSLSPGK
chain 2: FTVTVPKDLYVVEYGSNMTIECKFPVEKQLDLAALQVFWMMEDKNIIQFVHGEEDLKVQHSSYRQRARLLKDQLSLGNAALQITDVKLQDAGVYTCLIAYKGADYKRITVKVNAPYNKINQRILVVDPVTSEHELTCQAEGYPKAEVIWTSSDHQVLSGKTTTTNSKREEKLFNVTSTLRINTTTNEIFYCTFRRLDPEENHTAELVIPELPLAHPPNERGSGIWELKKDVYVVELDWYPDAPGEMVVLTCDTPEEDGITWTLDQSSEVLGSGKTLTIQVKAAGDAGQYTCHKGGEVLSHSLLLLHKKEDGIWSTDILKDQKEPKNKTFLRCEAKNYSGRFTCWWLTTISTDLTFSVKSSRGSSDPQGVTCGAATLSAERVRGDNKEYEYSVECQEDSACPAAEESLPIEVMVDAVHKLKYENYTSSFFIRDIIKPDPPKNLQLKPLKNSRQVEVSWEYPDTWSTPHSYFSLTFCVQVQGKSKREKKDRVFTDKTSATVICRKNASISVRAQDRYYSSSWSEWASVPCSGGGGSGGGGSGGGGSGGGGSGRNLPVATPDPGMFPCLHHSQNLLRAVSNMLQKARQTLEFYPCTSEEIDHEDITKDKTSTVEACLPLELTKNESCLNSRETSFITNGSCLASRKTSFMMALCLSSIYEDLKMYQVEFKTMNAKLLMDPKRQIFLDQNMLAVIDELMQALNFNSETVPQKSSLEEPDFYKTKIKLCILLHAFRIRAVTIDRVMSYLNASDKTHTCPPCPAPEDEGGPSVFLFPPKPKDTLMISRTPEVTCVVVDVSHEDPEVKFNWYVDGVEVHNAKTKPREEQYNSTYRVVSVLTVLHQDWLNGKEYKCKVSNKALPAPIEKTISKAKGQPREPQVYVYPPSREEMTKNQVSLTCLVKGFYPSDIAVEWESNGQPENNYKTTPPVLDEDGSFALVSKLTVDKSRWQQGNVFSCSVMHEALHNHYTQKSLSLSPGK
In the case of B1, the “Biological activity of IL-12, HEK-PD-1-IL-12 reporter assay, % of rIL-12” value in assay [1] was 126%.

B2: IL-12(F60A)/PD-L1(I54Q/Y56F/E58M/R113T/M115L/S117A/G119K)-Fc (IL-12 at hinge) (Fc fusion)
chain 1: FTVTVPKDLYVVEYGSNMTIECKFPVEKQLDLAALQVFWMMEDKNIIQFVHGEEDLKVQHSSYRQRARLLKDQLSLGNAALQITDVKLQDAGVYTCLIAYKGADYKRITVKVNAPYNKINQRILVVDPVTSEHELTCQAEGYPKAEVIWTSSDHQVLSGKTTTTNSKREEKLFNVTSTLRINTTTNEIFYCTFRRLDPEENHTAELVIPELPLAHPPNERGSGDKTHTCPPCPAPEKKGGPSVFLFPPKPKDTLMISRTPEVTCVVVDVSHEDPEVKFNWYVDGVEVHNAKTKPREEQYNSTYRVVSVLTVLHQDWLNGKEYKCKVSNKALPAPIEKTISKAKGQPREPQVYVLPPSREEMTKNQVSLLCLVKGFYPSDIAVEWESNGQPENRYMTWPPVLDSDGSFFLYSKLTVDKSRWQQGNVFSCSVMHEALHNHYTQKSLSLSPGK
chain 2: FTVTVPKDLYVVEYGSNMTIECKFPVEKQLDLAALQVFWMMEDKNIIQFVHGEEDLKVQHSSYRQRARLLKDQLSLGNAALQITDVKLQDAGVYTCLIAYKGADYKRITVKVNAPYNKINQRILVVDPVTSEHELTCQAEGYPKAEVIWTSSDHQVLSGKTTTTNSKREEKLFNVTSTLRINTTTNEIFYCTFRRLDPEENHTAELVIPELPLAHPPNERGSGIWELKKDVYVVELDWYPDAPGEMVVLTCDTPEEDGITWTLDQSSEVLGSGKTLTIQVKEAGDAGQYTCHKGGEVLSHSLLLLHKKEDGIWSTDILKDQKEPKNKTFLRCEAKNYSGRFTCWWLTTISTDLTFSVKSSRGSSDPQGVTCGAATLSAERVRGDNKEYEYSVECQEDSACPAAEESLPIEVMVDAVHKLKYENYTSSFFIRDIIKPDPPKNLQLKPLKNSRQVEVSWEYPDTWSTPHSYFSLTFCVQVQGKSKREKKDRVFTDKTSATVICRKNASISVRAQDRYYSSSWSEWASVPCSGGGGSGGGGSGGGGSGGGGSGRNLPVATPDPGMFPCLHHSQNLLRAVSNMLQKARQTLEFYPCTSEEIDHEDITKDKTSTVEACLPLELTKNESCLNSRETSFITNGSCLASRKTSFMMALCLSSIYEDLKMYQVEFKTMNAKLLMDPKRQIFLDQNMLAVIDELMQALNFNSETVPQKSSLEEPDFYKTKIKLCILLHAFRIRAVTIDRVMSYLNASDKTHTCPPCPAPEDEGGPSVFLFPPKPKDTLMISRTPEVTCVVVDVSHEDPEVKFNWYVDGVEVHNAKTKPREEQYNSTYRVVSVLTVLHQDWLNGKEYKCKVSNKALPAPIEKTISKAKGQPREPQVYVYPPSREEMTKNQVSLTCLVKGFYPSDIAVEWESNGQPENNYKTTPPVLDEDGSFALVSKLTVDKSRWQQGNVFSCSVMHEALHNHYTQKSLSLSPGK
Turning to B2, in assay [1], the “Biological activity of IL-12, HEK-PD-1-IL-12 reporter assay, % of rIL-12” value is 234%.

B3: IL-12(E59A/F60A)/anti-PD-1(D100N) (antibody)
light: not shown
heavy: QVQLVESGGGVVQPGRSLRLDCKASGITFSNSGMHWVRQAPGKGLEWVAVIWYDGSKRYYADSVKGRFTISRDNSKNTLFLQMNSLRAEDTAVYYCATNNDYWGQGTLVTVSSASTKGPSVFPLAPSSKSTSGGTAALGCLVKDYFPEPVTVSWNSGALTSGVHTFPAVLQSSGLYSLSSVVTVPSSSLGTQTYICNVNHKPSNTKVDKKVEPKSCDKPGSGIWELKKDVYVVELDWYPDAPGEMVVLTCDTPEEDGITWTLDQSSEVLGSGKTLTIQVKAAGDAGQYTCHKGGEVLSHSLLLLHKKEDGIWSTDILKDQKEPKNKTFLRCEAKNYSGRFTCWWLTTISTDLTFSVKSSRGSSDPQGVTCGAATLSAERVRGDNKEYEYSVECQEDSACPAAEESLPIEVMVDAVHKLKYENYTSSFFIRDIIKPDPPKNLQLKPLKNSRQVEVSWEYPDTWSTPHSYFSLTFCVQVQGKSKREKKDRVFTDKTSATVICRKNASISVRAQDRYYSSSWSEWASVPCSGGGGSGGGGSGGGGSGGGGSGRNLPVATPDPGMFPCLHHSQNLLRAVSNMLQKARQTLEFYPCTSEEIDHEDITKDKTSTVEACLPLELTKNESCLNSRETSFITNGSCLASRKTSFMMALCLSSIYEDLKMYQVEFKTMNAKLLMDPKRQIFLDQNMLAVIDELMQALNFNSETVPQKSSLEEPDFYKTKIKLCILLHAFRIRAVTIDRVMSYLNASDKTHTCPPCPAPEDEGGPSVFLFPPKPKDTLMISRTPEVTCVVVDVSHEDPEVKFNWYVDGVEVHNAKTKPREEQYNSTYRVVSVLTVLHQDWLNGKEYKCKVSNKALPAPIEKTISKAKGQPREPQVYVYPPSREEMTKNQVSLTCLVKGFYPSDIAVEWESNGQPENNYKTTPPVLDEDGSFALVSKLTVDKSRWQQGNVFSCSVMHEALHNHYTQKSLSLSPGK
heavy (part 1 of 2): QVQLVESGGGVVQPGRSLRLDCKASGITFSNSGMHWVRQAPGKGLEWVAVIWYDGSKRYYADSVKGRFTISRDNSKNTLFLQMNSLRAEDTAVYYCATNNDYWGQGTLVTVSSAS
heavy (part 2 of 2): EPKSCDKTHTCPPCPAPEKKGGPSVFLFPPKPKDTLMISRTPEVTCVVVDVSHEDPEVKFNWYVDGVEVHNAKTKPREEQYNSTYRVVSVLTVLHQDWLNGKEYKCKVSNKALPAPIEKTISKAKGQPREPQVYVLPPSREEMTKNQVSLLCLVKGFYPSDIAVEWESNGQPENRYMTWPPVLDSDGSFFLYSKLTVDKSRWQQGNVFSCSVMHEALHNHYTQKSLSLSPGK
In the case of B3, in assay [2], the Kd was determined as 25 nM. In addition, the “IL-12 signal transduction, HEK IL-12” value in assay [3] is under 0.2%. In assay [4], the “IFN-γ release, activated PBMC” value came out at 820 ng/mL; the “IL-12 signal transduction, HEK-IL-12-PD-1 (high)” value was found to be 38%; the “IL-12 signal transduction, HEK-IL-12-PD-1 (low)” value was 33%.

B4: anti-PD-1 antibody HC-CDR3(D100G) (antibody, V domains shown)
VH: QVQLVESGGGVVQPGRSLRLDCKASGITFSNSGMHWVRQAPGKGLEWVAVIWYDGSKRYYADSVKGRFTISRDNSKNTLFLQMNSLRAEDTAVYYCATNGDYWGQGTLVTVSS
VL: EIVLTQSPATLSLSPGERATLSCRASQSVSSYLAWYQQKPGQAPRLLIYDASNRATGIPARFSGSGSGTDFTLTISSLEPEDFAVYYCQQSSNWPRTFGQGTKVEIKR
notes: constant parts as m82
Molecule B4 returned a Kd in assay [5] of 130 nM.

B5: anti-PD-1 antibody HC-CDR3(D100N) (antibody, V domains shown)
VH: QVQLVESGGGVVQPGRSLRLDCKASGITFSNSGMHWVRQAPGKGLEWVAVIWYDGSKRYYADSVKGRFTISRDNSKNTLFLQMNSLRAEDTAVYYCATNNDYWGQGTLVTVSS
VL: EIVLTQSPATLSLSPGERATLSCRASQSVSSYLAWYQQKPGQAPRLLIYDASNRATGIPARFSGSGSGTDFTLTISSLEPEDFAVYYCQQSSNWPRTFGQGTKVEIKR
notes: constant parts as m82
B5 showed a Kd in assay [5] of 25 nM. This Kd is about 5.2-fold lower than that of the molecule before.

B6: anti-PD-1 antibody HC-CDR3(D100R) (antibody, V domains shown)
VH: QVQLVESGGGVVQPGRSLRLDCKASGITFSNSGMHWVRQAPGKGLEWVAVIWYDGSKRYYADSVKGRFTISRDNSKNTLFLQMNSLRAEDTAVYYCATNRDYWGQGTLVTVSS
VL: EIVLTQSPATLSLSPGERATLSCRASQSVSSYLAWYQQKPGQAPRLLIYDASNRATGIPARFSGSGSGTDFTLTISSLEPEDFAVYYCQQSSNWPRTFGQGTKVEIKR
notes: constant parts as m82
In the case of B6, the Kd in assay [5] stood at 910 nM.

B7: anti-PD-1 antibody HC-CDR3(N99G) (antibody, V domains shown)
VH: QVQLVESGGGVVQPGRSLRLDCKASGITFSNSGMHWVRQAPGKGLEWVAVIWYDGSKRYYADSVKGRFTISRDNSKNTLFLQMNSLRAEDTAVYYCATGDDYWGQGTLVTVSS
VL: EIVLTQSPATLSLSPGERATLSCRASQSVSSYLAWYQQKPGQAPRLLIYDASNRATGIPARFSGSGSGTDFTLTISSLEPEDFAVYYCQQSSNWPRTFGQGTKVEIKR
notes: constant parts as m82
For B7, the Kd in assay [5] worked out at 2300 nM.

For orientation: Kd means the equilibrium constant for the complex coming apart.
